Assay results published in a protein production outcome set (Wang et al. 2014).

Test: label from the status in PepcDB records

Row | Sequence | protein production
1 | MNKKKIKKLIKSALATTCAVSVITTTSVTAFASNSGENSKEEESNKRVEAEVYPVPQSLEHSSIEGMTLEGEVNIVYHGEQEAATSKRLERTLNENNIAFKVSENVEEGKANIIVSSEGDHCDVCSEGKEENSDVLTHKEGYVLKTSNDINEKGNISIIGSDKDGAYYGVLTLSQILEQSNEENKFAEVVVTDYPEIEFRGFIEGFYGVPWSHEDRMNLMKDTSEYKMNTYIYAPKDDPYHRLSWKELYPEQEAKQIAELAKAGAENNFNFCWTIHPGATLQFTDEDFDALINKFEQLYSLGVRQFGVLFDDTDDWRNGQKQAEWINKIDTEFVKAKGDVAPMIVISARYNSAWGPNMDRYFKPFMQTLHDDIQVMWTGHATMSNVSKEVFEWPKVQTGVDKDVAVWWNYPVNDYCDSRILMAPLHNLNQDLDNVSGFFSNPMNQAEASKVALYSIADYTWNTDAFDYMKSWETSIEKFVPEVKEEFMRFASNTCYLKDDGGASGPFEYDESWYLSEKIDALKEAMKNGQSAVKPAKDLLEEFKLIVSDYESITSKVTNKNLLGEIEQHLNAYKALGEAGIAAMEAIIASEEGNLELWMNSNSLAQEKLDLMETFKIESLESDGPKEYVVSVGTKLLKPLVKESMDYAKEKMGEVVLPKYDPEINTSLTNLKDVEVNFEDGIYSLRDLGEVTLNNGDYVGISLPKATKLRGINLLANNYDNIEIQYSINGLDWVTAKASTNENVLETLDVVDATFIRIINIGENSKNINLEKLEVLPVYKAEPTITENIGTHENYTIDKALDGNMDTKYWSNKPSDSGHNIQIDLGNVMPLYDINTYFGANDFMRNSEYMISEDGVNWTSLGALAYNSQDGKMVASANAEGKMARYIKIQSNGHNYGCWVEIYEIEFNKTAPEFDESAVNLASGTLEGNFNAFYDEDLSTAYEAKSVKDGDSLIYKMSRVTNISELEILQDKNRISEAKVSVKDLGGNWTEIGHLNAQINKLKVDNNITEVKFEFEGSKPAPKIYEIIAREREEQEEIVVSPVKEFKATTINKKNVTVSWEEPENTFGLESYILYKDGKKVSEISSDETSYTFKGLNRHTIYNFKIAAKYSNGEISKKESLTIRTAR | failed
2 | MKRIQVSPHIYKLESWFLLKMSAWIVKEDEGVYIVDTGMPYMGKRILKEAEKLGKVKGVLLTHGHSDHVGGLKKILDIQDLPVYVHTLDIKHMEGKEPFPGRKKREYLVEPGVAKPLPVDEDGEFRCFGNLVPYHTPGHSPGHVCYYHKKDRVLIGGDLFTSKRGKLQQPIKMFTADMNEAVRSGEIVKKLQPSKVSICHGNDIDNPHTQIDEYLTHYKYERNDQQKIKNEDRTIS | failed
3 | MNQTSSHSSLFSSSLPPVPDRPLSPSGRFNRLSYLAWYGFINLIGLMCLFGTGLIMGIFSLSQVTWDDQLLNALSGSFGFIMFGISILFFYFHVVLMIRRLHDTNRSGWWCLLFFVPVIQFILILYLLFIPGSKASNDYGIPRPSPVWEKILGWMIVIVLLLSLLMLGRLVSFMLGTGHLDFPQELIPKNTGYF | failed
4 | MTTTTAQPAASLAAALEHAERLLEVDPVMAAEQARAILEVVPRHADTTRVLAAAQRLSGDAEGGLATVAPLAMALPNLPLAQLELALCLERLGRTAEAARAFDRVSALEPRLSEAWRGLSESLELLGDRQGAERALARQLRASTRDPLLVEAATALAEDRLGEAERLLRDRLKADAGDVAAIRMLAETGARLGRYADAEALLTRCMELAPNFAAARHNLATMLYRQNKNLEALAQIEQLVAKDARHPGYANLYAAILARLGEYDRAIAVYGQVLADYPNQPKGWMSYGHALKTVGRQADSVAAYRKALDLAPTLGEVWWSLANLKTVRFTPEDLAAMSQALEAEGLSEDDRLHLHYALGKAQEDAQDWDASFQHYAAGAAIRREQLDYDADENTADTVRTKAVFSPAFIAARGGQGCAAPDPIFVVGLPRSGSTLVEQILASHSLVEGTMELPDLIVMARRLGGKTAKRAESTYPESLAELSPEDLRALGEEFLERTRIQRKTDKPFFIDKMPNNFAHTGLIHLILPNAKIIDARRHPLGCCFSGFKQHFARGQAFSYDLTDIGRYYADYVDLMAHFDAVLPGRVHRVIYERMIADPEAEIRALLDHCGLPFEEACLSPHENDRAVRTASSEQVRRPIFKDAVEHWQKFESHLGPLKQALGPVLTAYPDAPVI | failed
5 | MASEQEKTADFGFRTVAKDEKEVMVAEVFHSVAAKYDLMNDLMSFGIHRIWKRFTIECSGVRRNQRVLDLAGGTGDLTAKFSRMVGEGGEVILADINASMLKVGREKLRNKGIIDNINYVQANAEALPFPDDFFDCITISFGLRNVTDKNKALRSMYRVLKPGGRLLVLEFSKPVIKQLSTIYDAYSFHILPRIGEAVASDAGSYRYLAESIRMHPDQETLKGMMSDAGFDSVNYFNLTGGIVALHRGFKFLEHHHHHH | failed
6 | GSAQPRHDAQRPALAPRSDGFDIHTYHPDFVADPYPLLRLIRSRAPVCRDQASIWWISRYADVSACLRDRRFSADPARLGAAGVRQGGASWFGHQQLQPLARFYDNFMLFNDAPRHTRLRRLFAPAFGPDAVRRWEARIEVLVEELLDSLLERREPDLLRDFAEPLTIRVAAELFGFPREDTGQLLPWGRDLAAGLDLAASHGDAGQINRSAVAFSDYLQRQARGWSDGSSRPPSGAAPSILDGAAMLEAGLGLEDLVAAYAMVFMAAFETTISMVGNATLALLTHPDQLDLLRRCPELAANAVEELLRFDGAVRGGVRCTLEEVEIGGQRIPPGEKVWLSFLAANRDPEMFAAPDRLQLQRANAKQHVAFAHGPHYCLGAYLARLELQCALRGLVRRRFALASEPTDLRWRRSSVFRTLERLPIVP | failed
7 | MPITIGNGFLKSEILTNSPRNTKEAWWKVLWEKIKDFFFSTGKAKADRCLHEMLFADRTPTRERLTEIFFELKELACASQRDRFQVYNPNENDDTIILRIMDQNEENELLRITQNTDAFTCEVMGNAYFLIKDRPDILKPHPQMTAMINRRYSEIVDYPLPSTLCLNPAGAPTLSVPLDNIEGYLYSEWRKGNLDEWKTQEKVTYLAAKIQSGIEKTTRILQHANISESTQQSAFLETMAMCGLKQLEIPPPHTHIPIEKMVKEVLLADKTFQAFLVTDPSTSQSMLAEIVEAISDQVFHAIFRIAPQAIQKMAEEQLTTLHVRSEQQSGCLCCFL | failed
8 | MPVCWSHRSDSRPASNATPLSGPVGWAHQAAPLQRLLHGTAPVILSPALEPPQHKDPAMPKLASIHLYPIKSTAGMPLTRALVTEEGLQGDRRYMVVKPDGSFITARTHPQLQQVVATPIEGGLQLRYPGLDPLILQEREFSRTPRATGVWSDSFSALQTQPQADQWLSQVAGEPVQLLWLGEESARFREKTGTRVSFADGYPLLLISQASLEDLNLRSDALHQMSQFRTNLVASGTLPFEEDGWKRIRIGEVEFRVAKPCSRCIMTTVEPGTDRFNALKEPLATLTRYRRGEDGEVYFGQNLVALNEGWIEAGSEIEVLERARAPVYPNAAPKKRELVCVAREPLARDLETFWFEAADGEPLPDYLPGQHLPISLDIGLGLRRERLQRRYTLSSTPERPERYSISVKKVGGGRISHWLHQQLQPGDRLLAAAPAGEFHLGTGRSLLLLSAGSGVTPMLSIARTLALRGELGDVHFMHLCRSEADIPAAGELHALAQQGMTLTLILSQPDTHWQGLKGRLGDDHLKQVKQLAEREVFICGPHGFMADAAARLVALGVPAERIRQESFGGAILSVARPHQAVQLRIGKQSFAGNNQGTVLDQAHKQGVDLPWSCRAGICGSCKQTLLEGEVDHPDAPAITAAERAEGKILTCCAVPLTDLVIK | failed
9 | MTRSVWLKADSEVGDWETRKRRITAGIEAGVDWVLVDEEDVDRVSELGEINIAAFTNGDVHVMEAEAEDSEADATIVGKDGEGDGTVDLPSDFSGSADLSTLRQNGAAPDGGYVRIFDEDYEAFAEAVAAEADFTIVIGENWQIIPLENLIARVGEETDLIAGVRTAEDARTAYETLELGADGVLLDTDEVDEIRKTVEVRDEMGRESLDLEYAEVTAIEQTGSADRVCIDTGSLMEHDEGMLVGSMARGLFFVHAETAESPYVASRPFRVNAGAVHAYVRTPDGGTKYLSELQSGDEVQIVDANGRTREAIVGRAKIEKRPMFRVQAETEDSDRIETLLQNAETIKVHTQDGRTAVTDLEPGDEILIHHEDTATHFGERIEESIIEK | failed
10 | MQGGSSGIGYGLKYQSRCISDVKADTDYTSFLTGTLSLKEENEVHLLRLSSGGSELICEGLFSHPNEIWDLASCPFDQRIFSTVFSTGESFGAAIWQIPELYGQLNSPQLERVASLDAHVGKINCVLWWPSGRCDKLISIDEQNIFLWSLDCSKKSAEVLSKDSAGMLHSLSGGAWDPHDVNAVAATGESSVQFWDLRTMKKVNSIEHAHVRGVDYNPKREHILVTAEDESGIHVWDLRKAKVPVQELPGHTHWTWAVRCNPEYDGLILSAGTDSVVNLWYASATSSDDKTSESPVESTRQRVNPLLNSYTDYEDSVYGLAWSSREPWVFASLSYDGRVIIESVKPFLPRI | failed
